How the values were obtained:
glucagon (1-29) [1] = target: T1, glucagon (1-29) (Homo sapiens); test: Biacore SPR, antibody captured by goat anti-mouse Fc, glucagon (1-29) as analyte, 25 C, 1:1 Langmuir model
T1 construct: Glucagon (1-29), Anaspec 22456, as analyte in Biacore; the listing names Homo sapiens; also called GCG; glucagon peptide
Procedure: (§1) Briefly described, the anti-glucagon monoclonal antibody IBA009 or IBA032, may be dissolved in HBS-EP buffer (150 mM sodium chloride, 3 mM EDTA, 0.005% (w/v) surfactant P-20, and 10 mM N-2-hydroxyethylpiperazine-N′-2-ethanesulfonic acid (HEPES) at pH 7.4; #BR-1001-88). Goat anti-mouse Fc antibody is immobilized on flow cells 1 to 4 of a CMS sensor chip at a level of 4000 response units (RUs) using amine coupling chemistry to capture anti-glucagon antibodies.
(§2) Binding may be evaluated using multiple analytical cycles. Each cycle is performed at a flow rate of 50 μl/minute, and may consist of the following steps: injection of about 10 μl of the anti-glucagon monoclonal antibody IBA009 or IBA032 at 10 μg/ml aiming at a capture of 40-100 RUs, injection of 250 μl of glucagon (1-29) (Anaspec 22456)—(starting at 100 nM and using two-fold serial dilutions for each cycle) followed by 20 minutes for dissociation, and regeneration using about 30 μl of 10 mM glycine hydrochloride, pH 1.5. Association and dissociation rates for each cycle may be evaluated using a “1:1 (Langmuir) binding” model in the BIAevaluation software 4.1.
(§3) The anti-glucagon monoclonal antibodies IBA009 and IBA032 may be tested for binding kinetics to glucagon.

glucagon (1-29) [2] = target: T1, glucagon (1-29); test: affinity for glucagon against commercial antibody 2D3-2B11 (Sigma-Aldrich WH0002641M1); method of the reference value not stated
glucagon (1-29) [3] = target: T1, glucagon (1-29); test: Biacore SPR, antibody captured by goat anti-mouse Fc, glucagon (1-29) as analyte; KD = koff/kon
Procedure: as §1, §2, §3

glucagon (1-29) [4] = target: T1, glucagon (1-29); test: affinity for glucagon against commercial antibody K79bB10 (Sigma-Aldrich G2654); method of the reference value not stated

T1 sequence (peptide, as listed by the source): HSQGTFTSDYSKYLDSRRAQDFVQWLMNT

B1: anti-glucagon monoclonal antibody IBA009 (antibody, mouse IgG1, kappa, V domains shown)
VH: QVQLLQPGAELVKPGASVKLSCKASGYNFNDYWLNWVKQRPGQGLEWIGNAYPGWGIINYNEKFKSKVTLTVDTSSSTVYMQLSSLTSDDSAVYYCARDYDNAYWGQGTTVTVSS
VL: NIVMTQSPKSMSMSVGERVTLTCKASENAGTYVAWYQQKPEQSPKLLIYNGSHRYDGVPDRFTGSGSATDFTLTISSVQAEDLADYYCGQSYSYPWTFGGGTKLEMKR
notes: Captured through goat anti-mouse Fc in Biacore; biotin-labelled as capture antibody in the sandwich ELISA; also called capture antibody IBA009; anti-mid region antibody IBA009
With B1 the koff (glucagon (1-29) [1]) was 1.1e-05 s⁻¹, the kon (glucagon (1-29) [1]) was 1.5e+07 M⁻¹ s⁻¹ and the “fold stronger affinity than reference antibody 2D3-2B11” value (glucagon (1-29) [2]) was about 130 fold. The Kd (glucagon (1-29) [3]) was 0.73 pM.

B2: anti-glucagon monoclonal antibody IBA032 (antibody, mouse IgG1, kappa, V domains shown)
VH: QVQLQQSGAELVKPGASVKMSCKASGYNFTDYWIHWVKERPGQGLEWIGYFSTHSDYAIINQKFRDKATLTADKSSRLAYMQLSSLTSEDSAIYYCARGGLGLSYWGQGTTVTVSS
VL: DIVMTQAAPSVLVTPGESVSISCRSPKSLVGPMGRTYLYWFLQRPGQSPQLLIYRRNNLAPGVPDRFSGSGSGTAFTLRISRVEAEDVGIYYCMQHLEFPLTFGAGTKLEIKR
notes: Captured through goat anti-mouse Fc in Biacore; ruthenium-labelled as detection antibody in the sandwich ELISA; also called detection/conjugate antibody IBA032; anti-glucagon C-terminal antibody IBA032
With B2 the koff (glucagon (1-29) [1]) was 0.00024 s⁻¹, the kon (glucagon (1-29) [1]) was 2.7e+07 M⁻¹ s⁻¹ and the “fold stronger affinity than reference antibody K79bB10” value (glucagon (1-29) [4]) was about 800 fold. The Kd (glucagon (1-29) [3]) was 8.7 pM.

From US20140335096A1 (Eli Lilly, published 2014)
